Data published in paper PMC8617236.

Target: chicken LPCAT3 (cLPCAT3), Twin-Strep tag removed, purified in LMNG/GDN (Gallus gallus)
Assay: cryo-EM structure; cLPCAT3 extracted with LMNG, dimer fractions from SEC in GDN; with 0.2 mM arachidonoyl CoA (3.49 Å) or 0.5 mM 12:0-LPC (3.57 Å); C2 symmetry

stoichiometry N: 2
Substance: chicken LPCAT3 (cLPCAT3), Twin-Strep tag removed, purified in LMNG/GDN (enzyme)
